# From article PMC9002611
# Biological target: Strep-tagged HypC_(H51A) (E. coli) (UniProt P0AAM3)
# Test: pull-down; single-step Strep-tactin affinity enrichment of the Strep-tagged chaperone from extracts of anaerobically grown SHH228 cells co-producing HypD; elution fractions (10 ug protein) on SDS-PAGE, Coomassie stain, densitometry (ImageQuant TL); apparent stoichiometries
binder,measurement,value
HypD (untagged) (natural protein) MRFVDEYRAPEQVMQLIEHLRERASHLSYTAERPLRIMEVCGGHTHAIFKFGLDQLLPENVEFIHGPGCPVCVLPMGRIDTCVEIASHPEVIFCTFGDAMRVPGKQGSLLQAKARGADVRIVYSPMDALKLAQENPTRKVVFFGLGFETTMPTTAITLQQAKARDVQNFYFFCQHITLIPTLRSLLEQPDNGIDAFLAPGHVSMVIGTDAYNFIASDFHRPLVVAGFEPLDLLQGVVMLVQQKIAAHSKVENQYRRVVPDAGNLLAQQAIADVFCVNGDSEWRGLGVIESSGVHLTPDYQRFDAEAHFRPAPQQVCDDPRARCGEVLTGKCKPHQCPLFGNTCNPQTAFGALMVSSEGACAAWYQYRQQESEA,"apparent stoichiometry with HypD, percent lower than for the native chaperone",85 % lower
